Laboratory results published in patent publication US20250320302A1 (EVOTEC INTERNATIONAL, published 2025).

Experiments:
[1] = target: human IFNγ receptor on HEK-Blue IFN-γ cells (human); test: cell-based or functional assay
human CD40 = human CD40 (human, UniProt P25942 21-277); test: cell-based or functional assay
human CD40, sequence (P25942 21-277): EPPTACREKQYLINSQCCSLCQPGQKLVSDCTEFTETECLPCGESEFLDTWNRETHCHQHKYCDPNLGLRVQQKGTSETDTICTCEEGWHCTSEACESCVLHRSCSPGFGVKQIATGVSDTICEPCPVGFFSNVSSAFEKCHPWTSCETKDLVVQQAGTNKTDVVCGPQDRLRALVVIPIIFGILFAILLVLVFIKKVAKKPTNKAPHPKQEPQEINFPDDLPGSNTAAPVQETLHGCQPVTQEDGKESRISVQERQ

IFNγ EC50 (HEK-Blue IFNγ reporter cells) [1]: 0.142 ng/mL | CD40 EC50 (HEK-Blue CD40L NFκB-SEAP reporter cells) (human CD40): 8.8 ng/mL
B1: IFA125 (antibody, human IgG2, kappa)
heavy: QVQLVESGGGVVQPGKSLRLSCAASGFTFSSNGIHWVRQAPGKGLEWVAVIWSDGSNKFYADSVKGRFTISRDNSKNTLYLQMNSLRAEDTAVYYCARASGSGSYYNFFDYWGQGTLVTVSSASTKGPSVFPLAPCSRSTSESTAALGCLVKDYFPEPVTVSWNSGALTSGVHTFPAVLQSSGLYSLSSVVTVPSSNFGTQTYTCNVDHKPSNTKVDKTVERKCCVECPPCPAPPVAGPSVFLFPPKPKDTLMISRTPEVTCVVVDVSHEDPEVQFNWYVDGVEVHNAKTKPREEQFNSTFRVVSVLTVVHQDWLNGKEYKCKVSNKGLPAPIEKTISKTKGQPREPQVYTLPPSREEMTKNQVSLTCLVKGFYPSDIAVEWESNGQPENNYKTTPPMLDSDGSFFLYSKLTVDKSRWQQGNVFSCSVMHEALHNHYTQKSLSLSPGGGGGSGGGGSGGGGSGGGGSQDPYVKEAENLKKYFNAGHSDVADNGTLFLGILKNWKEESDRKIMQSQIVSFYFKLFKNFKDDQSIQKSVETIKEDMNVKFFNSNKKKRDDFEKLTNYSVTDLNVQRKAIHELIQVMAELSPAAKTGKRKRSQMLFRGRRASQ
light: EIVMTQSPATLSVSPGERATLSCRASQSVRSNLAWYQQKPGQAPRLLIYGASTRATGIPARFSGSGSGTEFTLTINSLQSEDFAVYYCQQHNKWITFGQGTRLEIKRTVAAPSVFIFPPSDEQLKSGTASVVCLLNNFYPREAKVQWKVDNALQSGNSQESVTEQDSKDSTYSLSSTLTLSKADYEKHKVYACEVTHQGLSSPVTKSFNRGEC
